According to the nanobody polyreactivity screen of Harvey et al. (2022):

Assay: yeast display, Sf9 membrane polyspecificity reagent, FACS + sequencing; frameworks hold sequencing errors
How it was run: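 A nanobody's polyreactivity label depends on the gate it was sorted from. Yeast display cells were stained with 10% biotinylated, detergent-solubilized Sf9 membrane reagent for 1 hour at 4 °C, enriched on streptavidin microbeads and sorted by FACS. The low and high (top ~1%) gates were set on anti-HA fluorescence for expression and streptavidin fluorescence for reagent binding.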

Row | Sequence | polyreactivity (PSR sort gate)
1 | QVQLVESGGGLVQAGGSLRLSCAASGFIFYYYTMGWYRQAPGKERELVAAISSSGGRTYYADSVKGRFTISRDNAKNTVYLQMNSLKPEDTAVYYCAALYRWNQFPYFKGGYWGQGTQVTVSS | high polyreactivity
2 | QVQLVESGGGLVQAGGSLRLSCAASGFIGWYRQAPGKERELVAAISWRGGRTYYADSVKGRFTISRDNAKNTVYLQMNSLKPEDTAVYYCNAVGNVWGYDSWGQGTQVTVSS | high polyreactivity
3 | QVQLVESGGGLVQAGGSLRLSCAASGFIIADYTMGWYRQAPGKERELVAAITRSGDSTYYADSVKGRFTISRDNAKNTVYLQMNSLKPEDTAVYYCNAVNDWYYAYYGVTSFRSYDYWGQGTQVTVSS | low polyreactivity
4 | QVQLVESGGGLVQAGGSLRLSCAASGFIIAFDNAMGWYRQAPGKERELVAAISSGTTTHYADSVKGRFTISRDNAKNTVYLQMNSLKPEDTAVYYCAADSVKQVRYGNVGHDYWGQGTQVTVSS | low polyreactivity
5 | QVQLVESGGGLVQAGGSLRLSCAASGFIIAGYAMGWYRQAHGKEMELVAAISSRGGSTYYADSVKGRFTISRDNAKNTFYLQMNSLKPEDTSVYYCARTTPTGRQYRRYDYWGQGTQVTESS | low polyreactivity
6 | QVQLVESGGGLVQAGGSLRLSCAASGFIIAYYAMGWDRQAPGKERELVAAINGGGGSRSYADSVKGRFTISRDNAKNTVYLQMNSLKPEDTAVFYCAADGSDDEENDYWGQGTQVTVSS | high polyreactivity
7 | QVQLVESGGGLVQAGGSLRLSCAASGFIIDGYAMGWYRQAPGKERELVAVISQRGSNTYYADSVKGRFTISRDNAKNTVYLQMNSLKPEDTAVYYCAARYKQGDSTGGRMNYWGQGTQVTVSS | high polyreactivity
8 | QVQLVESGGGLVQAGGSLRLSCAASGFIIDRNAMGWYRQAAGKERELVAAITSRGGSTYYADSVKGRFTISRDNAKNTVYLQMNSLKPEDTAVYYCNAGRRVSTYGYWGPGTQVTVSS | high polyreactivity
9 | QVQLVESGGGLVQAGGSLRLSCAASGFIIDSYAMGWYRQAPGKERELVATITKGGGRTYYADSVKGRFTISRDNAKNTVYLQMNSLKPEDTAVYYCNARGFSRRKGLDYWGQGTQVTVSS | low polyreactivity
10 | QVQLVESGGGLVQAGGSLRLSCAASGFIIGDYAMGWYRQAPGTERELVAAIFSVGSTYYADSVKGRFTISRDNAKNTVYLQMNSLKPEDTAVYYCAARFARYDWSMYYWGQGTQVTVSS | low polyreactivity
11 | QVQLVESGGGLVQAGGSLRLSCAASGFIIIGNAMVWYRQAPGKERELVAAISRRGGSTYYADSVKGRFTISRDNAKNTVYLQMNSLKPEDTAVYYCATDPGARVHYPTGDYWGQGTQVTLSS | high polyreactivity
12 | QVQLVESGGGLVQAGGSLRLSCAASGFIIIGYVMGWYRQAPGKERELVAAITSSGGSTYYADSVKGRFTISRDHAKNTVYLQMNSLKPEDTAVYYCAAEYYLLWSGMEYWGQGTQVTVSS | low polyreactivity
13 | QVQLVESGGGLVQAGGSLRLSCAASGFIILINVMGGYRQAPGNERELVAVITGGGTTNYADSVKGRFTISRDNAKNTVYLQMYSLKPEDTAVYYCAADWIVVSEFGLDYHMDYWGQGSQVTVSS | low polyreactivity
14 | QVQLVESGGGLVQAGGSLRLSCAASGFIILIYAMGWYRQAPGKERELVATIRYSGGRTYYADSVKGRFTISRDNAKNTVFLQMNSLKPEDTAVDYCAADGYPTLYDYWGQGTQVTVSS | high polyreactivity
15 | QVQLVESGGGLVQAGGSLRLSCAASGFIIPGYAMGWYRQAPGKERELVAAISSGTSTYYADSVKGRFTISRDNAKNTVYLQMNSLKPEDTAVYYCAAETWYRFGYWGQGTQVTVSS | low polyreactivity
16 | QVQLVESGGGLVQAGGSLRLSCAASGFIITQYAMGWYSQEPGKERELVAAISGNGGRTYYADSVKGRFTISRDNAKYTVYLHLISLKPEDTAVYYCAVTYYWYGVRYDYWGQCTQVTVSS | high polyreactivity
17 | QVQLVESGGGLVQAGGSLRLSCAASGFIIVIYAMGWYIQAPGKERELVAAIRWRGGGTYYADSVKGRFTISRDNAKNTVYLQMNSLKPEDTAVYYCNADGWTYREEYWWRMDYWGLGTQVTVSS | low polyreactivity
18 | QVQLVESGGGLVQAGGSLRLSCAASGFIIYGYVMGWYRQAPGKERELVAAINSSSGRTYYADSVKGRFTISRDNAKNTVYLQMNSLKPEDTAVYYCAAYYYGSYDGTPYDYWGQGTQVTVSS | low polyreactivity
19 | QVQLVESGGGLVQAGGSLRLSCAASGFIIYRNARGWYRQAPGKERELVAGISSGGSTNYADSVKGRFTISRDNAKNTVYLQMTSLKPEDTADYYCATRVYALWFGRYDYWGQGTQVTVSS | high polyreactivity
20 | QVQLVESGGGLVQAGGSLRLSCAASGFIKFYAMGWYRQAPGKERELVASISSGGRTNYADSVKGRFTISRDNAKNTVYLQMNSLKPEDTAVYYCAAIGWRTRSRFEYWGQGTQVTVSS | high polyreactivity
21 | QVQLVESGGGLVQAGGSLRLSCAASGFILDTYGMGWYRQAPGKERELVAAISQSDVSTYYADSVKGRFTISRDNAKNTVSLQMNSLKPEDTAVYYCAADRAGLRWFWQLLYDYWGQGTQVTVSS | low polyreactivity
22 | QVQLVESGGGLVQAGGSLRLSCAASGFILDYNAMGWYRQAPGKERELVATITGRGDRTYYADSVKGRFTISRDNAKNTVYLQMNSLKPEDTAVYYCAAAYLIYSDYGPAMDYWGQGTQVTVSS | low polyreactivity

Row | Sequence | polyreactivity (PSR sort gate)
23 | QVQLVESGGGLVQAGGSLRLSCAASGFILDYNTMGWYRQAPGKERELVAAISSSGDTTYYADSVKGRFTISRDNAKNTVYLQMNSLKPEDTAVYYCGREYGDGYEYWGQGTQVTVSS | low polyreactivity
24 | QVQLVESGGGLVQAGGSLRLSCAASGFILEPNAMGWYRQAPGKERELVATISFSGGGTYYADSVKGRFTISRDNAKNTVYLQMNSLKPEDTAVYYCAADWYYYVWWYDYWGQGTQVTVSS | high polyreactivity
25 | QVQLVESGGGLVQAGGSLRLSCAASGFILGYYVMGWYRQAPGKERELVAAISSGGRTYYADSVKGRFTISRDNAKNTVYLQMNSLKPEDTAVYYCNAYAPRRRFDYWGQGTQVTVSS | high polyreactivity
26 | QVQLVESGGGLVQAGGSLRLSCAASGFILLYYAMGWYRQAPGKERELVAAISWTGGRTYYADSVKGRFTISRDNAKNTVYLQMNSLKPEDTAVYYCNTVKFFGRKYGYWGQGTQVTVSS | low polyreactivity
27 | QVQLVESGGGLVQAGGSLRLSCAASGFILPYYTMGWYRQAPGKDRELVAAITYSGASPFYADSVKGRFTISRVNAKNTVYLQMNSLKPEDTGVYYGANEWSGWYESPLDDGDYDYWGQGTEVTVSS | low polyreactivity
28 | QVQLVESGGGLVQAGGSLRLSCAASGFILRQNVMGWYRQAPGKERELVAAISRSGGRTYYADSVKGRFTISRDNAMNTVYFQMNSLKPEDTAVDYCNAGRYNYTDDYWGQGTQVTVSS | high polyreactivity
29 | QVQLVESGGGLVQAGGSLRLSCAASGFILVDYAMGWYRQAPGKERELVAAITYDGGSTYYADSVKGRFTISRDNAKNTVYLQMNSLKPEDTAVYYCAADYGYSQYILGQFRLEELDYWGQGTQVTVSS | low polyreactivity
30 | QVQLVESGGGLVQAGGSLRLSCAASGFILYFNAMGWYRQAPGKERELVAAITTDGGSTYYADSVKGRFTISRDNAKNTVYLQMNSLKPEDTAVYYCAADASTWYTEEYWGQGTQVTVSS | low polyreactivity
31 | QVQLVESGGGLVQAGGSLRLSCAASGFILYTYAMGWYIQAPGKERELVADIDSGDGTYYADSVKGRFTISRDNAKNTVYLQMNSLKPEDTAVDYCAADYGGASEYGYWGQGTQVTVSS | low polyreactivity
32 | QVQLVESGGGLVQAGGSLRLSCAASGFILYVNAMGWYRQAPGKERELVAGITSSGTSTYADSVKGRFTISRDNAKNTVYLQMNSLKPEDTAVYYCAALRRPYGARDYDYWGQGTQVTVSS | low polyreactivity
33 | QVQLVESGGGLVQAGGSLRLSCAASGFILYYYAKGWYRPAPGKERELVAAISWSGDSTYYADSVKGRFTISRDNAKNTVYLQMNSLKPEDTAVYYCAATWQLTHRYYWGQGTQVTVSS | low polyreactivity
34 | QVQLVESGGGLVQAGGSLRLSCAASGFISAYYALGWSRQAPGKERELVAGITRGGNTYYADSVKGRFTISRDNAKNTVYLQMNSLKPEDTAVYYCAAEGSHNSEYWGQVTQVTVSS | high polyreactivity
35 | QVQLVESGGGLVQAGGSLRLSCAASGFISDVYAMGWSRQAPGKEREWVAVITWRGSTYYADSVKGRFTISRDNAKYTVYLQMNSLKPEDTAVYYCAAESQGDWAFDYWGQGTQVTVSS | low polyreactivity
36 | QVQLVESGGGLVQAGGSLRLSCAASGFISDVYAMGWYRQAPGKERELVAVITWRGSTYYADSVKGRFTISRDNAKNTVYLQMNSLKPEDTAFYYCAAESQGDWAFDYWGQGTQVTVSS | low polyreactivity
37 | QVQLVESGGGLVQAGGSLRLSCAASGFISDWYAMGWYRQAPGKERELVATIDWIGGSTYADSVKGRFTISRDNAKNTVYLQMNSLKPEDTAVYYCAADSYFIAWYGAHYAYDYWRQGTQVTVSS | low polyreactivity
38 | QVQLVESGGGLVQAGGSLRLSCAASGFISGYYTMRWYRQAPGKARELVAVINSGGSTYYADSVKGRFTISRDNAKNTVYLQMNSLKPEDTAVYYCAKLGGKYSRYYYWGQGTQVTVSS | low polyreactivity
39 | QVQLVESGGGLVQAGGSLRLSCAASGFISHYYAMGWYRQAPGKERELVAAIRISGDRTYYADSVKGRFTISRDNAKNTVYLQMNSLKPEDTAVYYCNAVWEYYGKSDYWGQGTQVTVSS | low polyreactivity
40 | QVQLVESGGGLVQAGGSLRLSCAASGFISTYYAMGWYRQAPGKERELVAAISWNGGSTYYADSVKGRFTISRDNAKNTVYLQMNSLKPEDTAVYYCAAYLGKWRHFYSSDYDYWGQGTQVTVSS | low polyreactivity
41 | QVQLVESGGGLVQAGGSLRLSCAASGFIVDYYAMGWYREAPGKERELVAAIDDSAGSTYYADSVKGRFTISRDNAKNTVYLQMNSLKPEDTAVYYCAADIYVEYDYWGQGTQVTVSS | low polyreactivity
42 | QVQLVESGGGLVQAGGSLRLSCAASGFLFPKNAMGWSRQAPGTEMEWVAAISSGGARTYYADSVKGRFTISRDNAQNSVYEQMNSLKPEDTAVYYCAARTSPFWRGGGLDYWGQGTQVTVSS | high polyreactivity
43 | QVQLVESGGGLVQAGGSLRLSCAASGFLPNAMGWYRQAPGKERELVAAISSRGGSTYYADSVKGRFTISRDNAKNTVYLQMISLKPEDTAVYYCAATYYGRDGYRYDYWGQGTQVTVSS | high polyreactivity
